From PMC8822174

Experiments:
[1] = biological target: swine fibronectin (swine); assay: SPR
[2] = biological target: swine plasminogen (swine); assay: SPR

Substance | Kd [1] | Kd [2]
Mycoplasma pneumoniae enolase (from UniProt P75189 1-456) (enzyme) | > 1000 nM | 300 nM
Mycoplasma bovis enolase (from UniProt A0A454AQL1 1-454) (enzyme) | 486 nM | 95.2 nM
Mycoplasma hyopneumoniae enolase (enzyme) | 74.1 nM | 62.5 nM
